# Measurements taken from paper doi:10.1101/647354 (bioRxiv, 2019).
# B1: OmCI (natural protein)
# chain: DSESDCTGSEPVDAFQAFSEGKEAYVLVRSTDPKARDCLKGEPAGEKQDNTLPVMMTFKNGTDWASTDWTFTLDGAKVTATLGNLTQNREVVYDSQSHHCHVDKVEKEVPDYEMWMLDAGGLEVEVECCRQKLEELASGRNQMYPHLKDC
# notes: also called Coversin; His-tagged OmCI
# Target: T1, complement C5 (human, UniProt P01031 19-673; P01031 678-1676)
# T1 construct: also called human C5; source: endogenous, human serum
# Test: cryo-EM structure
# Settings: both partners purified
# T1 sequence (P01031 19-673, chain 1 of 2): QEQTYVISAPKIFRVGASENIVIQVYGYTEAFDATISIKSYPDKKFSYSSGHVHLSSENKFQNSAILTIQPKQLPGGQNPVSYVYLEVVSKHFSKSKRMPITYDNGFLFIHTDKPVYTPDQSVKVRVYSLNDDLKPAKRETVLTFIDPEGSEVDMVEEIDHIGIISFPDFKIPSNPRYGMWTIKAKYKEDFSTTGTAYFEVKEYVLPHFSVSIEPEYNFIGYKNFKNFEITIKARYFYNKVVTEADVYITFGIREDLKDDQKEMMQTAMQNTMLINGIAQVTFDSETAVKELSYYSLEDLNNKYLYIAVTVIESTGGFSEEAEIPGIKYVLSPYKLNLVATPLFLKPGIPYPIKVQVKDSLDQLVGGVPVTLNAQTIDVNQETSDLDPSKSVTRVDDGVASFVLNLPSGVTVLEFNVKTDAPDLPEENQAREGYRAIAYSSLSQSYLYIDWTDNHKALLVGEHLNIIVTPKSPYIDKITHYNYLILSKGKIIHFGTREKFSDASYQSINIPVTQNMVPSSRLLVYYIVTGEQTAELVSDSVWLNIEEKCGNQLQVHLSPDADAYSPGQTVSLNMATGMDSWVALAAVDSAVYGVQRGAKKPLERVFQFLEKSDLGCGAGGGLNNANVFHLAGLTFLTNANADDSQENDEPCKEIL
# T1 sequence (P01031 678-1676, chain 2 of 2): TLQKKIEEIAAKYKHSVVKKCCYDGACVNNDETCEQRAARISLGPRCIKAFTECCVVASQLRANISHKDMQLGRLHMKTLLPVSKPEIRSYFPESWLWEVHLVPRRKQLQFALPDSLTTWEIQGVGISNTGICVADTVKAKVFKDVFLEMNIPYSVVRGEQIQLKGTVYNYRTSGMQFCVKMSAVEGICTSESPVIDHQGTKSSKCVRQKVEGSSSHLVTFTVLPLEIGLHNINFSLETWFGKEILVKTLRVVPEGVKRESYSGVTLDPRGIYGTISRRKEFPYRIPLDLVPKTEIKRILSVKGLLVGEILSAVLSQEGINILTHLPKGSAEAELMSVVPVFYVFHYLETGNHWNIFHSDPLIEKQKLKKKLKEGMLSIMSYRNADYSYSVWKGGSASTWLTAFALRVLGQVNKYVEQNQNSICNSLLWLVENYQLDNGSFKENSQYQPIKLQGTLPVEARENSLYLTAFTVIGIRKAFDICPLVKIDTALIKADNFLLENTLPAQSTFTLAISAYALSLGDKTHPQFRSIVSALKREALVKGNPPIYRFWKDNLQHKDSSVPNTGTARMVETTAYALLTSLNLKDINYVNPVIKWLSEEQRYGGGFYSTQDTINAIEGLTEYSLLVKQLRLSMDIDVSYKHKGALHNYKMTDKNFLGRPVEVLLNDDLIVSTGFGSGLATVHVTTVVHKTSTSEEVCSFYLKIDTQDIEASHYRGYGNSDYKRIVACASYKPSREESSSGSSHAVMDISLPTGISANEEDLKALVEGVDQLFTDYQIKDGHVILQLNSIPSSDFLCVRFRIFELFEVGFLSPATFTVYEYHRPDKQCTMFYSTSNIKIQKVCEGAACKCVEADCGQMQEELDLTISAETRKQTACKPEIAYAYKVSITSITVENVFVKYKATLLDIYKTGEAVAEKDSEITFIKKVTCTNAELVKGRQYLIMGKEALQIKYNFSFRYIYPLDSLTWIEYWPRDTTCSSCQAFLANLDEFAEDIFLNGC
binder,measurement,value
B1,binding result,binds
